Data from PMC9428257 (2022).

What was measured:
Assay in all cases: FACS
[1] = biological target: yeast-displayed mutant sBCMA V2 (V3 without N53D) (human, UniProt Q02223 1-54, S16G | H19Y | T36A)
Clone V5 = biological target: Clone V5
Clone V8 = biological target: Clone V8

- Kd [1]: 0.018 nM
- Kd (Clone V5): 0.007 nM
- Kd (Clone V8): 0.054 nM
B1: human APRIL (a proliferation-inducing ligand) (ligand)
chain: AVLTQKQKKQHSVLHLVPINATSKDDSDVTEVMWQPALRRGRGLQAQGYGVRIQDAGVYLLYSQVLFQDVTFTMGQVVSREGQGRQETLFRCIRSMPSHPDRAYNSCYSAGVFHLHQGDILSVIIPRARAKLNLSPHGTFLGFVKL
